Measurements as given in publication PMC8467012, “Targeting ErbB3 Receptor in Cancer with Inhibitory Antibodies from Llama” (Biomedicines, 2021).

B1: BCD090-P1 (VHH)
VHH: EVQLVQSGGGLVQPGGSLRLSCAASGRTSSKYAMGWFRQAPGKGTEFVATISWSDGSTYYADSVEGRFTISRDNAKNTVYLQMNSLKPEDTAVYYCAAAVDVLAGTFEYEYDYWGQGTLVTVSS
notes: llama VHH from a phage display library; the product left after TEV cleavage; Monomer by SEC; One disulfide bond Cys22-Cys92; also called anti-ErbB3 single-domain antibody BCD090-P1; source: E. coli SHuffle T7 express or BL21(DE3), cytoplasmic, purified (IMAC, TEV cleavage, negative IMAC, ion exchange); not shown: His tag, N-terminal, cleaved; SUMO, N-terminal, cleaved
B2: BCD090-M456 (VHH)
VHH: QVQLVQSGGGLVQSGGSLKLSCVASGGPFSTYLMGWFRQAPGKEREFVTAISRSGLNTYYADSVKGRFTISRDNAKNTVYLQMHSLKPEDTAVYHCAARRGGTNSGSYYFDRPAVSDEYDLWGQGTLVTVSS
notes: llama VHH from a phage display library; the product left after TEV cleavage; Lacks the Cys22-Cys92 disulfide bond (cysteines reduced); CDR H3 of 23 residues; also called anti-ErbB3 single-domain antibody BCD090-M456; source: E. coli SHuffle T7 express or BL21(DE3), cytoplasmic, purified (IMAC, TEV cleavage, negative IMAC, ion exchange); not shown: His tag, N-terminal, cleaved; SUMO, N-terminal, …
B3: pelB-BCD090-P1-His5 (VHH)
VHH: B1 VHH
notes: as the VHH of m1 (BCD090-P1), with the uncleaved pelB leader and a histidine tag; also called BCD090-P1 purified from the periplasm; periplasmically expressed BCD090-P1; source: E. coli, periplasmic expression (pET22b), purified; not shown: pelB leader (uncleaved), N-terminal, kept; His5, C-terminal, kept
B4: BCD090-P1 conjugated with Cy5 or AF488 (VHH)
VHH: B1 VHH
notes: as the VHH of m1 (BCD090-P1); also called labeled BCD090-P1; source: E. coli, purified, then labelled with sulfo-Cy5 or AF488 NHS ester
B5: BCD090-M2 (VHH)
VHH: QVQLVQSGGGLVQAGGSLRLSCAFSGRTFSMYTMGWFRQAPGKEREFVAANRGRGLSPDIADSVNGRFTISRDNAKNTLYLQMDSLKPEDTAVYYCAADLQYGSSWPQRSSAEYDYWGQGTTVTVSS
notes: llama VHH from a phage display library; the product left after TEV cleavage; no PDB id is printed; also called anti-ErbB3 single-domain antibody BCD090-M2; source: E. coli SHuffle T7 express, cytoplasmic, purified (IMAC, TEV cleavage, negative IMAC, ion exchange); not shown: His tag, N-terminal, cleaved; SUMO, N-terminal, cleaved

How the values were obtained:
[1] = molecular target: T1, extracellular domain of ErbB2 (Homo sapiens (assumed), UniProt P04626); test: SPR; test of antibody specificity against the extracellular domain of ErbB2 (Figure S5); Biacore T200, CM5 chip, 37 °C; conditions: both partners purified
T1 construct: ErbB2 (HER2) receptor, extracellular domain; also called ErbB2 ECD

[2] = molecular target: T2, human ErbB3 extracellular subdomain 3 (ECD^III, residues 329-532) (Homo sapiens, UniProt P21860); test: SPR; ErbB3 ECD^III immobilised on a CM5 chip by amine coupling; Biacore T200, 37 °C; HBS with 50 µg/mL BSA; conditions: both partners purified
T2 construct: ErbB3 (HER3) receptor, human, extracellular subdomain 3, residues 329-532; secreted with the Igκ leader of the pEE vector; Glycosylated, MW ~25 kDa; also called ErbB3 ECD^III; source: CHO-T-HC cells, transiently transfected, secreted, purified (CaptureSelect C-tag resin)

[3] = molecular target: T3, human ErbB3 extracellular domain (ECD, residues 21-643) (Homo sapiens, UniProt P21860); test: SPR; ErbB3 ECD immobilised on a CM5 chip by amine coupling; Biacore T200, 37 °C; HBS with 50 µg/mL BSA; equilibrium response read 5 s before injection end, fitted by the Hill equation; geometric means of two experiments; conditions: both partners purified
T3 construct: ErbB3 (HER3) receptor, human, extracellular domain, residues 21-643; secreted with the Igκ leader of the pEE vector; Glycosylated, MW 75 kDa; also called ErbB3 ECD; HER3 extracellular domain; source: CHO-T-HC cells, transiently transfected, secreted, purified (IMAC on HisTrap, SEC on Superdex 200 pg)

[4] = molecular target: T3, human ErbB3 extracellular domain (ECD, …); test: SPR; ErbB3 ECD immobilised on a CM5 chip by amine coupling; Biacore T200, 37 °C; antibodies in HBS (10 mM HEPES pH 7.4, 150 mM NaCl) with 50 µg/mL BSA; sensograms fitted globally by a 1:1 model at three concentrations near KD; geometric means of two experiments; conditions: both partners purified
[5] = molecular target: T4, ErbB3 receptor on cancer cells (Homo sapiens, UniProt P21860); test: immunostaining of cells or tissue; live cells stained 30 min in PBS with 5 µg/mL directly labelled antibody and Hoechst 33342; confocal microscopy; MCF-7, SK-BR-3, BT-474, Hep G2; K562 as negative control; conditions: one partner purified
T4 construct: ErbB3 (HER3) receptor, endogenous on human cancer cell lines; also called HER3; source: endogenous, on live MCF-7, SK-BR-3, BT-474 and Hep G2 cells
T4 sequence (P21860 20-1342): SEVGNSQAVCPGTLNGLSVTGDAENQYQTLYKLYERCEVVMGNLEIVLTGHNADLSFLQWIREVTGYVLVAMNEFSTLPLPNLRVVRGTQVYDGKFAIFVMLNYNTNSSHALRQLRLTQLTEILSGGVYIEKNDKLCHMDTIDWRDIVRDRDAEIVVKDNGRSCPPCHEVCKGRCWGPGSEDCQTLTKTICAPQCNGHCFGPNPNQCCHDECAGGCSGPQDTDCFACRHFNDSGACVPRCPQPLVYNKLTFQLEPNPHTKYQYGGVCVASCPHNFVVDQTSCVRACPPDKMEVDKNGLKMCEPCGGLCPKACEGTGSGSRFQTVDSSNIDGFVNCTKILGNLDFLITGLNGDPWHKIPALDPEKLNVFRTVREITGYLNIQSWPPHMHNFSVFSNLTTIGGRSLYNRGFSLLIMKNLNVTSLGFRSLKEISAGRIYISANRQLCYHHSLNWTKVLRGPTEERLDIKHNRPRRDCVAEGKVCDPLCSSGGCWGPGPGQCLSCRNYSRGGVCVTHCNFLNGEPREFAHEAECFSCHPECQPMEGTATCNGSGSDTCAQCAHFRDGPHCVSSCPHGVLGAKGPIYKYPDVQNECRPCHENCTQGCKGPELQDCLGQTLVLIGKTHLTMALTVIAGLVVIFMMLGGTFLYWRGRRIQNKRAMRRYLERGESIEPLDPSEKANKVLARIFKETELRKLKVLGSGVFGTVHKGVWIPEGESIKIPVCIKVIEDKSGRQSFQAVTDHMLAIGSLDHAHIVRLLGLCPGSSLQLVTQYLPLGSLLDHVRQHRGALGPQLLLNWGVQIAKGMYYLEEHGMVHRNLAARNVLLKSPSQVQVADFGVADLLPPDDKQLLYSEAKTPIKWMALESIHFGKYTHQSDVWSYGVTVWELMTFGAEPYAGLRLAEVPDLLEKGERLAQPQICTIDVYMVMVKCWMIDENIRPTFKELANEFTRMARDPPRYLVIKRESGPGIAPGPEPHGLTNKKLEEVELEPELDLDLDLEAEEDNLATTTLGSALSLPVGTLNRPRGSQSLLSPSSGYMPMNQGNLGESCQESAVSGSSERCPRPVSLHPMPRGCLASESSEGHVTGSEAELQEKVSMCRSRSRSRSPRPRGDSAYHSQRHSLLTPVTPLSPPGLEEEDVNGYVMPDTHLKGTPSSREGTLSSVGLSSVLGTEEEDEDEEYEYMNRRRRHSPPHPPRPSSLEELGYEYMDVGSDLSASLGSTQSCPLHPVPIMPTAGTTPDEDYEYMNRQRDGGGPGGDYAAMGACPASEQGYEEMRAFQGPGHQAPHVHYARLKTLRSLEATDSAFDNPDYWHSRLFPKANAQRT

T2 sequence (P21860 329-532): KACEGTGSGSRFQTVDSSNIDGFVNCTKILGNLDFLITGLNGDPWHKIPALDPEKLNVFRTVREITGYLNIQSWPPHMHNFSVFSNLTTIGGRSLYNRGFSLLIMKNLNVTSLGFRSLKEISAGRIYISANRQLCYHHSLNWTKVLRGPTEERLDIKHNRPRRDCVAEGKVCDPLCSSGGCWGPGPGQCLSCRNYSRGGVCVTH
T3 sequence (P21860 21-643 R488S): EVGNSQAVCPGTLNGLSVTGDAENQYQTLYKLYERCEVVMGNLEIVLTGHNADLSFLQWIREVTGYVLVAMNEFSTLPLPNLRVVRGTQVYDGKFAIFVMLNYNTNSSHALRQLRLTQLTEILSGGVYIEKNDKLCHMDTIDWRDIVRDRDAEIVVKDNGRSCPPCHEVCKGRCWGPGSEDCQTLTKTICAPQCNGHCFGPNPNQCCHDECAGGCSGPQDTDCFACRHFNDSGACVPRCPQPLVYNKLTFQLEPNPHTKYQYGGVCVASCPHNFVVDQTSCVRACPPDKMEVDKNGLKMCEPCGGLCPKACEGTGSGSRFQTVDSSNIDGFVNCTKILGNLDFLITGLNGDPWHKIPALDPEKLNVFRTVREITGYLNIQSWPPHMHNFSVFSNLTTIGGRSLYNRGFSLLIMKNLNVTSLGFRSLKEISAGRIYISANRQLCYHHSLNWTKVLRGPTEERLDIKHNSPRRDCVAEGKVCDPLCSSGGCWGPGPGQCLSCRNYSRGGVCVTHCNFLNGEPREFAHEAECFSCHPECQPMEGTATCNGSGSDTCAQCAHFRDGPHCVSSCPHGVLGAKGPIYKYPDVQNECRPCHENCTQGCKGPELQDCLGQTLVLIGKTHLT

| Binder | binding result [1] | binding result [2] | Kd [3] [nM] | Kd [4] [nM] | koff [4] [s⁻¹] | kon [4] [M⁻¹ s⁻¹] | binding result [5] |
| --- | --- | --- | --- | --- | --- | --- | --- |
| B1 | no binding | binds | 1.61 ± 0.06 | 1.6 ± 0.2 | 0.003 | 1.9e+06 | – |
| B2 | – | no binding | 8600 ± 800 | 3100 ± 200 | 0.0022 | 720 | – |
| B3 | – | – | 6.5 ± 0.9 | 5.1 ± 0.9 | 0.0044 | 870000 | – |
| B4 | – | – | – | – | – | – | binds |
| B5 | no binding | no binding | 15 ± 1 | 16.5 ± 2 | 0.0036 | 220000 | – |
